Measured values from the supplement of paper PMC10567573.

B1: ATL3 (parent)
chain: HFKKTKKMGGKDFSFRYQQELEEE
B2: TSPAN10 (parent)
chain: EGCGPPLRRWLRANLAASGGYAIA

Variants of: B1
Experiment: protein stability index of a GFP-peptide fusion (GPS, HEK-293T) (PSI 1-6); higher = more stable
Conditions: c terminus: a fixed tail appended
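Also: lentivirally expressed fusions sorted by FACS into six bins by GFP to DsRed ratio, PSI derived from sequencing read proportions per bin multiplied by bin number.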

Variant	protein stability index
F13R	3.94
F13S	4.83
F13E	5.36
F13V	4.96
F13L	4.45
F13C	4.74
F13G	5.01
F13M	3.76
F13N	5.05
K4N	2.26
K4T	2.1
K4Q	1.75
K4E	1.6
K4M	2.26
K4S	3.01
K4L	2.6
K4A	2.72
S14L	2.35
S14T	3.24
S14W	4.01
S14Y	3.61
S14V	2.17
F15E	1.39
F15Y	1.54

Variant	protein stability index
F15R	1.83
F15N	1.66
F15G	2.22
F15C	3.07
F15K	3.04
E24T	2.39
E24K	3.43
E24H	3.13
E24Q	2.08
E24D	2.28
E24S	2.85
E24F	2.01
E24G	2.63
E24W	1.9
K7T	1.9
K7G	1.8
K7P	2.56
K7V	1.84
K7N	2.11
K7R	1.65
K7L	2.1
L21Q	2.4
L21F	1.53
L21P	4.57

Variant	protein stability index
G10C	1.56
G10A	1.75
G10M	2.71
G10L	2.07
G10E	5.39
G10W	1.7
G10P	1.3
G10D	1.8
G10T	1.61
K11H	2.11
K11Y	1.26
K11A	2.69
K11C	2.17
K11Q	2.24
K11T	2.22
K11V	2.39
K11W	1.78
Q18I	1.85
Q18P	4.2
Q18T	2.27
Q18N	2.54
Q18D	4.65
Q18E	2.73
E22Y	2.15

Variant	protein stability index
E22N	1.72
E22Q	1.59
E22G	2.5
E22T	2.03
Q19H	2.38
Q19A	3.52
Q19R	2.52
Q19D	3.36
Q19I	1.46
Q19C	1.57
T5K	2.22
T5V	2.75
T5Y	1.75
T5G	1.35
T5R	1.31
T5F	2.44
T5I	2.17
T5M	2.57
T5A	1.5
K3G	1.86
K3M	2.71
K3W	1.02
K3Q	3.21
K3R	2.42

Variant	protein stability index
K3P	1.9
K3V	2.4
K3E	1.43
Y17V	2.03
Y17D	5.61
Y17W	2.61
Y17G	4.68
Y17R	5.25
Y17M	4.21
F2C	1.8
F2M	2.76
F2D	2.65
F2L	1.39
F2T	1.87
F2N	2.28
E20H	3.98
E20T	3.31
E20S	3.94
E20V	2.51
E20R	3.96
E20P	3.22
K6M	2.51
K6T	1.96
K6E	2.1

Variant	protein stability index
K6P	1.2
K6A	2.4
K6I	1.37
K6V	2.46
K6N	2.15
K6F	3.58
H1L	1.65
H1W	2.22
H1K	3.03
H1F	1.88
R16M	2.84
R16W	2.11
R16K	2.51
R16D	5.02
R16A	2.98
D12E	2.34
D12N	2.1
D12Y	2.32
G9A	1.41
G9N	1.99
G9H	1.84
G9E	1.77
G9Q	1.96
G9V	1.82

Variant	protein stability index
G9W	1.88
M8V	1.64
M8W	2.35
M8P	1.92
M8G	3.01
M8Y	1.99
M8Q	2.21
M8R	2.81
M8K	3.19
M8F	1.68
M8T	2.63
M8S	2.77
E23L	2.22
E23M	2.61
E23S	2.2
E23F	2.27
E23Q	1.81
E23Y	1.71

Variants of: B2
Experiment: as above
Conditions: c terminus: a fixed tail appended

Variant	protein stability index
A17V	1.4
A17D	2.71
A17L	1.63
A17Q	2.79
A17Y	1.97
A17G	1.59
A17W	2.03
A17R	1.44
A17H	2
A17F	1.35
A17M	2.2
A17I	2.67
A17T	1.4
A17K	1.7
A17E	2.63
A17S	1.84
A17N	2.96
A17P	1.81
A17C	1.39
I23H	1.96
I23W	1.59
I23R	2.6
I23N	2.92
I23K	2.96
I23Y	1.73

Variant	protein stability index
I23Q	2.48
I23M	1.21
I23E	2.34
I23S	2.63
I23C	2.15
I23D	2.35
I23P	2.45
I23L	2.16
I23V	2.11
I23F	2.17
I23G	2.3
I23T	2.53
A16I	1.96
A16N	2.5
A16K	2.31
A16D	2.12
A16Y	1.48
A16E	2.58
A16H	2.13
A16L	1.53
A16W	1.45
A16R	1.68
A16M	2.98
A16P	1.78
A16V	1.65

Variant	protein stability index
A16C	1.78
A16G	1.71
A16T	1.63
A16Q	1.57
A16S	1.68
G19Q	1.43
G19S	2.58
G19H	2.32
G19L	2.17
G19F	1.79
G19M	1.24
G19T	1.74
G19Y	1.93
G19D	2.11
G19P	2.13
G19K	1.89
G19W	3.26
G19V	1.67
G19A	1.11
G19C	1.46
G19N	2.13
G19R	2.33
G19E	1.84
G19I	1.93
A22N	2.43

Variant	protein stability index
A22Q	1.63
A22I	1.03
A22L	2.06
A22R	1.68
A22P	1.93
A22K	1.75
A22H	2.23
A22T	1.7
A22C	1.38
A22D	2.46
A22G	1.96
A22V	2.8
A22Y	2.04
A22E	2.28
A22M	1.62
A22S	1.93
A22W	2.18
A24I	2.22
A24E	2.92
A24R	2.12
A24D	2.42
A24M	1.93
A24W	2.25
A24T	2
A24F	1.48

Variant	protein stability index
A24S	1.98
A24Q	2.6
A24V	1.67
A24N	2.27
A24L	2.81
A24C	2.02
A24G	1.65
A24Y	1.16
A24H	1.68
A24K	2.15
Y21Q	2.75
Y21S	2.7
Y21F	1.85
Y21C	2.36
Y21W	1.47
Y21R	2.3
Y21H	2.39
Y21V	2.53
Y21T	2.53
Y21G	2.11
Y21E	2.4
Y21L	2.11
Y21P	2.07
Y21I	1.81
Y21N	2.61

Variant	protein stability index
Y21D	2.61
Y21A	2.65
Y21K	3.04
Y21M	2.17
L15R	3.06
L15Y	1.92
L15V	2.07
L15T	1.95
L15S	2.94
S18I	1.44
S18W	2.06
S18F	2.57
S18R	1.8
S18A	1.97
S18P	2.28
S18G	1.98
S18M	1.6
S18E	1.75
S18T	2.34
S18N	2.01
S18C	2.15
S18H	1.87
S18L	2.19
S18Q	2.04
S18V	2.16

Variant	protein stability index
S18K	1.61
S18D	2.71
S18Y	1.4
G20K	2.77
G20S	2.17
G20V	2.21
G20L	1.96
G20T	1.63
G20E	2.33
G20A	1.94
G20R	1.48
G20C	1.56
G20H	2.03
G20F	1.96
G20N	3.44
G20Q	2.53
G20I	1.49
G20W	1.84
G20D	2.25
G20Y	1.66
G20P	2
G20M	1.84
